Measurements reported in patent US20250161474A1, “ANTIBODY-DRUG CONJUGATES TARGETING EGFR/C-MET AND PREPARATION METHODS AND USES THEREOF” (Sichuan Kelun-Biotech Biopharmaceutical Co., Ltd., priority 2023, published 2025).

Assays:
[1] = Hydrophilicity of bispecific antibodies (HIC, TSKgel Butyl-NPR); assay type: physicochemical; conditions: for Hydrophobicity value: (RT sample − RT hydrophilic control)/(RT hydrophobic control − RT hydrophilic control), Tagitanlimab = 0, Sacituzumab = 1; for Retention time: HIC, TSKgel Butyl-NPR column, 30°C, smaller = more hydrophilic
Description: Column temperature: 30° C., detection wavelength: 280 nm, flow rate: 0.5 ml/min, mobile phase A: 1.5 mol/L (NH4)2SO4, mobile phase B: 25 mmol/L Na2HPO4, pH=7.0, 25% IPA. A suitable amount of the test sample was diluted with diluent (0.75 mol/L (NH4)2SO4) to make a solution of 1.0 mg/ml as the test sample solution. The control antibodies were Tagitanlimab as a hydrophilic control (disclosed in WO2017148424) and Sacituzumab as a hydrophobic control (disclosed in WO2019114666). (Both antibodies are produced by Kelun-Biotech.) Each of the control antibodies were diluted with the diluent to make a solution of 1.0 mg/ml as the system suitability solution. About […] of sample was injected and analyzed in gradient elution: 0-3 min, maintaining mobile phase A of 95% and mobile phase B of 5%; 3-40 min, mobile phase B from 5% to 100%; 40-45 min, maintaining mobile phase A of 95% and mobile phase B of 5%. The hydrophobicity value of the test sample was calculated according to the control sample with the formula: (retention time of the test sample−retention time of the hydrophilic control)/(retention time of the hydrophobic control−retention time of the hydrophilic control), and the smaller the retention time and hydrophobicity value, the better the hydrophilicity of the antibody.

[2] = Hydrophilicity of ADCs (HIC, TSKgel Butyl-NPR); assay type: physicochemical; conditions: for Hydrophobicity value: (RT sample − RT hydrophilic control)/(RT hydrophobic control − RT hydrophilic control), Tagitanlimab = 0, Sacituzumab = 1; for Retention time: HIC, TSKgel Butyl-NPR column, 30°C, smaller = more hydrophilic
Description: The column temperature was 30° C., the detection wavelength was 280 nm, and the flow rate was: 0.5 mL/min, mobile phase A: 1.5 mol/L (NH4)2SO4; mobile phase B: 25 mmol/L Na2HPO4, pH=7.0, 25% isopropanol alcohol (IPA). For analysis, a test sample of ADC was diluted to 1 mg/mL solution using the diluent 0.75 mol/L (NH4)2SO4 to provide a test solution. The hydrophilic control antibody was Tagitanlimab and the hydrophobic control antibody was Sacituzumab. Control antibodies were produced by Sichuan Kelun-Biotech Biopharmaceutical Co., Ltd. using the diluent to make a 1 mg/mL test solution as the system suitability solution. […] After testing, the hydrophobicity value of the test sample was calculated based on the control sample. The calculation formula was: (Retention time of test sample−Retention time of hydrophilic control)/(Retention time of hydrophobic control−Retention time of hydrophilic control).

Substance	Hydrophobicity value [1]	Retention time [1] [min]	Hydrophobicity value [2]	Retention time [2] [min]
Tagitanlimab	0.00	11.009	0.00	11.01
Sacituzumab	1.00	19.001	1.00	19.00
